Reference: paper PMC10718521, “Complexity of αvβ6-integrin targeting RGD peptide trimers: emergence of non-specific binding by synergistic interaction” (RSC Medicinal Chemistry, 2023)
Like-named read-outs stand apart in the source and are kept apart here. Where a SMILES comes first, the peptide text is derived from it. [ ]: non-standard residue; d: D form. The star is where a group is joined. NMeK = CN[C@@H](CCCCN)C(=O)O; Pent4ynoyl = C#CCCC(=O)*

How the values were obtained:
αvβ8-integrin [1] = biological target: T1, αvβ8-integrin (Homo sapiens, UniProt P06756+P26012); set-up: method as in PMID 34559266; conditions: ELISA; read-out: IC50 (95% confidence interval) αvβ8; cited from earlier work
αvβ6-integrin [2] = biological target: T2, αvβ6-integrin (Homo sapiens, UniProt P06756+P18564); set-up: method as in PMID 34559266; conditions: ELISA; read-out: IC50 (95% confidence interval) αvβ6; cited from earlier work
α5β1-integrin [3] = biological target: T3, α5β1-integrin (Homo sapiens, UniProt P05556+P08648); set-up: method as in PMID 34559266; conditions: ELISA; read-out: IC50 (95% confidence interval) α5β1; cited from earlier work
αvβ3-integrin [4] = biological target: T4, αvβ3-integrin (Homo sapiens, UniProt P05106+P06756); set-up: method as in PMID 34559266; conditions: ELISA; read-out: IC50 (95% confidence interval) αvβ3; cited from earlier work
αvβ8-integrin [5] = biological target: T1, αvβ8-integrin; test: ELISA on immobilized integrins, αvβ8; assay type: binding; conditions: read-out: IC50 (95% confidence interval) αvβ8
Protocol: (§1) The integrin affinities of the monomers were determined using an established ELISA protocol,[36] and expressed as 50% inhibitory concentrations (IC50, Table 1).
(§2) Unless otherwise noted, the materials and the instrumentation used (analytical and preparative HPLC, ESI-MS, gamma counter, centrifuge), and the experimental procedures (^68Ga radiolabeling and radio-TLC for quality control, determination of log D7.4, cultivation of H2009 human lung adenocarcinoma cells, generation of tumor xenografts in CB17 SCID mice, small-animal PET, and biodistribution) were described before.[19] All animal experiments have been carried out according to applicable law and institutional guidelines of Technical University of Munich, and were approved by the responsible local authority (Regierung von Oberbayern). The H2009 cells were regularly authenticated and tested for mycoplasma contamination. The affinities of the pentynoic amide functionalized peptides were determined employing a well-established ELISA protocol on immobilized integrins.[36] TRAP-triazide,[38]FF (previously termed AvB6),[32] and YY (also referred to as Tyr2-alkyne)[33] were synthesized as described previously. […]

α5β1-integrin [6] = biological target: T3, α5β1-integrin; test: ELISA on immobilized integrins, α5β1; assay type: binding; conditions: read-out: IC50 (95% confidence interval) α5β1
Protocol: as §1, §2

αvβ6-integrin [7] = biological target: T2, αvβ6-integrin; test: ELISA on immobilized integrins, αvβ6; assay type: binding
Protocol: as §1
Unless otherwise noted, the materials and the instrumentation used (analytical and preparative HPLC, ESI-MS, gamma counter, centrifuge), and the experimental procedures (^68Ga radiolabeling and radio-TLC for quality control, determination of log D7.4, cultivation of H2009 human lung adenocarcinoma cells, generation of tumor xenografts in CB17 SCID mice, small-animal PET, and biodistribution) were described before.[19] All animal experiments have been carried out according to applicable law and institutional guidelines of Technical University of Munich, and were approved by the responsible local authority (Regierung von Oberbayern). The H2009 cells were regularly authenticated and tested for mycoplasma contamination. The affinities of the pentynoic amide functionalized peptides were determined employing a well-established ELISA protocol on immobilized integrins.[36] TRAP-triazide,[38]FF (previously termed AvB6),[32] and YY (also referred to as Tyr2-alkyne)[33] were synthesized as described previously. RP-HPLC for assessment of compound polarity was done on a 150 × 4.6 mm ReproSil-Pur 120 C18-AQ 5 μm column, with a flow of 0.75 mL min^−1 and a gradient of 10–50% MeCN in water, both containing 0.1% trifluoroacetic acid, within 15 min. The required ^natGa-complexes of the peptide trimers were synthesized by reaction with equimolar amounts of aq. GaCl3 as described.[19]

αvβ3-integrin [8] = biological target: T4, αvβ3-integrin; test: ELISA on immobilized integrins, αvβ3; assay type: binding; conditions: read-out: IC50 (95% confidence interval) αvβ3
Protocol: as §1, §2

T3 sequence (P08648 42-995 limits assumed): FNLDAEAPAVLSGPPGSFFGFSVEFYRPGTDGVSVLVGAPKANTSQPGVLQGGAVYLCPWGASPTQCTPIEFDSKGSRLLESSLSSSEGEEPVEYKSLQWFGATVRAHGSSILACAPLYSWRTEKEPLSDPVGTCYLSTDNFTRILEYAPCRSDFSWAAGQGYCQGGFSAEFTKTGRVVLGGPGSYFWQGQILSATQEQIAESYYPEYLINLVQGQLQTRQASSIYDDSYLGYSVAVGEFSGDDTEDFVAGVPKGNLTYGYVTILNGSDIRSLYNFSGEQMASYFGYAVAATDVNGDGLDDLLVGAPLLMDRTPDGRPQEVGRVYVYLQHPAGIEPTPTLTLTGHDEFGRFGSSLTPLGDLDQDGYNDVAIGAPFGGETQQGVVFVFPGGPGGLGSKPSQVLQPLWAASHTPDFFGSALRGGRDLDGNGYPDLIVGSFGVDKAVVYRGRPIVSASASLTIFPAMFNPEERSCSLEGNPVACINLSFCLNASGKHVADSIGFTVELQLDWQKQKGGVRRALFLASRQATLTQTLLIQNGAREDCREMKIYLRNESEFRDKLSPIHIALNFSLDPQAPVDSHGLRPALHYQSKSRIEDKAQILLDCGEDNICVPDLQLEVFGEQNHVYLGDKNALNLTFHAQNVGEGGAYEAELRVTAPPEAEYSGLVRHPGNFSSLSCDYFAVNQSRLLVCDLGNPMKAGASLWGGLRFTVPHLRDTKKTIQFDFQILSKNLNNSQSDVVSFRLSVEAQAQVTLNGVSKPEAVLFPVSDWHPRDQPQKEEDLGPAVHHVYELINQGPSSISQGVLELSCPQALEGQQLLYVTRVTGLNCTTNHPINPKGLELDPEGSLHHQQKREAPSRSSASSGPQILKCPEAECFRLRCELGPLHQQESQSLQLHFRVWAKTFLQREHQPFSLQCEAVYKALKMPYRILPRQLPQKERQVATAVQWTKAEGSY
T3 sequence (P05556 21-728 limits assumed): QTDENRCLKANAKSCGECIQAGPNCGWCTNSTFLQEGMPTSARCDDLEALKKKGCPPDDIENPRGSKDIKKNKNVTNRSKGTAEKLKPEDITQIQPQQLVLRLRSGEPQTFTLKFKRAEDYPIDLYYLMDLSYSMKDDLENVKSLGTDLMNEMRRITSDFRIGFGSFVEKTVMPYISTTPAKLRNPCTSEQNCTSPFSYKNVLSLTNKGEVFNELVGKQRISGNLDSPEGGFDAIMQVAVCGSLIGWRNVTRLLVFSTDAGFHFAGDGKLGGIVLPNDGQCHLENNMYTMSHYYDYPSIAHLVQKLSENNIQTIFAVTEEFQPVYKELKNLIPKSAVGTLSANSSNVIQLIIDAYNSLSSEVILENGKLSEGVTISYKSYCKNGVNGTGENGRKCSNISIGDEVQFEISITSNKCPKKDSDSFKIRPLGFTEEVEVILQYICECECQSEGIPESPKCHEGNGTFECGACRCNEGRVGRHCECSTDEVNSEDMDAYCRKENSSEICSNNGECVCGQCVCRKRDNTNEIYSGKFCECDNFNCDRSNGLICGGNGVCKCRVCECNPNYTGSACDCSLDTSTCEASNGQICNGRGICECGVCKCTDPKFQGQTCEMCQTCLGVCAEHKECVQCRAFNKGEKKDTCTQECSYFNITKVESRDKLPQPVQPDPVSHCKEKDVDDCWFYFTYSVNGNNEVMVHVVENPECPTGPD
T4 sequence (P06756 31-1048): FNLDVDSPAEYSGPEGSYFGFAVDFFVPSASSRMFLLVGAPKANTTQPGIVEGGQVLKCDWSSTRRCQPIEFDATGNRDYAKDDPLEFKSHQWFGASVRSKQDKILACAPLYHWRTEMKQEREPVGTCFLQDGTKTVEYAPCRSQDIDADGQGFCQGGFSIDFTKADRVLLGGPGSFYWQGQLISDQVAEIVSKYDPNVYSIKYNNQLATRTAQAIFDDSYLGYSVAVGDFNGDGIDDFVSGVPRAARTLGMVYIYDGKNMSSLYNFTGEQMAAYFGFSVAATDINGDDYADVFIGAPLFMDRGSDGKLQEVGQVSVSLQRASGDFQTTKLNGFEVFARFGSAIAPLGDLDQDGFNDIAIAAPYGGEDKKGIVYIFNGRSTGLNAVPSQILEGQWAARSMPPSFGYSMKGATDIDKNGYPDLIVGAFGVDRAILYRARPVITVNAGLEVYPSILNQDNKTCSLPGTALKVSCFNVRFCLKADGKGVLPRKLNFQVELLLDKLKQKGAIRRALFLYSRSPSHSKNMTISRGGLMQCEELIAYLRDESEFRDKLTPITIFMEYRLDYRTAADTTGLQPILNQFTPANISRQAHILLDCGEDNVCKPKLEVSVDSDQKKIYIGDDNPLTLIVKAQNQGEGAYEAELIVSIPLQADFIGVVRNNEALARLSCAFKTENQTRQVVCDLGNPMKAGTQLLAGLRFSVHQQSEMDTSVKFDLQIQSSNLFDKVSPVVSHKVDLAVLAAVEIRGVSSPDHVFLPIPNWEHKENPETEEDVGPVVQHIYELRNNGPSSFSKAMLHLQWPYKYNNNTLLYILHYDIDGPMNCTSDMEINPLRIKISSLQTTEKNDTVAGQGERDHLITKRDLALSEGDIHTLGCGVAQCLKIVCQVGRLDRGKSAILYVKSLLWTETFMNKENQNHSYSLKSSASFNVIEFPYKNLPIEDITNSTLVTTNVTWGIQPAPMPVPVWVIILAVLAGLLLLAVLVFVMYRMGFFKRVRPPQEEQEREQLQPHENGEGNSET
T4 sequence (P05106 27-788): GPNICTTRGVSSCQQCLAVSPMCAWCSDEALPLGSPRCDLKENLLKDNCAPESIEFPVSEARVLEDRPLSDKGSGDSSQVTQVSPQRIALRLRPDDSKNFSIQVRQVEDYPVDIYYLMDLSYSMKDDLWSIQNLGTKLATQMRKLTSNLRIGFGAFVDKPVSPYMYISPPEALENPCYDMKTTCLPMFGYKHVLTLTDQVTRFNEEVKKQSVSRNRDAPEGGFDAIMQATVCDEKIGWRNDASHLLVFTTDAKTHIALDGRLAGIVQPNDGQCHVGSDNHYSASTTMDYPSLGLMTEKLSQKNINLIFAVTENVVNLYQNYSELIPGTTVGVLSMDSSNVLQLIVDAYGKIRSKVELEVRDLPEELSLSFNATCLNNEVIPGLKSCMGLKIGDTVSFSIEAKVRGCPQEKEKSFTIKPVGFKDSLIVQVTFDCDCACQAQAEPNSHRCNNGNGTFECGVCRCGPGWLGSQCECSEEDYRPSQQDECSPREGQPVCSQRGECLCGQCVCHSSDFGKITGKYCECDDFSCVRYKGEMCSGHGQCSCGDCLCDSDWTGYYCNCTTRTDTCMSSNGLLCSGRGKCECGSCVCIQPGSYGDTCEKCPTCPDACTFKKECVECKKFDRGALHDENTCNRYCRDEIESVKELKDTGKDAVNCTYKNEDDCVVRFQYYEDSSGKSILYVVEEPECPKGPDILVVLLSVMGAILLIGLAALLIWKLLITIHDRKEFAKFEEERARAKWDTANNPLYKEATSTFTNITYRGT
T2 sequence (P06756 31-992 limits assumed): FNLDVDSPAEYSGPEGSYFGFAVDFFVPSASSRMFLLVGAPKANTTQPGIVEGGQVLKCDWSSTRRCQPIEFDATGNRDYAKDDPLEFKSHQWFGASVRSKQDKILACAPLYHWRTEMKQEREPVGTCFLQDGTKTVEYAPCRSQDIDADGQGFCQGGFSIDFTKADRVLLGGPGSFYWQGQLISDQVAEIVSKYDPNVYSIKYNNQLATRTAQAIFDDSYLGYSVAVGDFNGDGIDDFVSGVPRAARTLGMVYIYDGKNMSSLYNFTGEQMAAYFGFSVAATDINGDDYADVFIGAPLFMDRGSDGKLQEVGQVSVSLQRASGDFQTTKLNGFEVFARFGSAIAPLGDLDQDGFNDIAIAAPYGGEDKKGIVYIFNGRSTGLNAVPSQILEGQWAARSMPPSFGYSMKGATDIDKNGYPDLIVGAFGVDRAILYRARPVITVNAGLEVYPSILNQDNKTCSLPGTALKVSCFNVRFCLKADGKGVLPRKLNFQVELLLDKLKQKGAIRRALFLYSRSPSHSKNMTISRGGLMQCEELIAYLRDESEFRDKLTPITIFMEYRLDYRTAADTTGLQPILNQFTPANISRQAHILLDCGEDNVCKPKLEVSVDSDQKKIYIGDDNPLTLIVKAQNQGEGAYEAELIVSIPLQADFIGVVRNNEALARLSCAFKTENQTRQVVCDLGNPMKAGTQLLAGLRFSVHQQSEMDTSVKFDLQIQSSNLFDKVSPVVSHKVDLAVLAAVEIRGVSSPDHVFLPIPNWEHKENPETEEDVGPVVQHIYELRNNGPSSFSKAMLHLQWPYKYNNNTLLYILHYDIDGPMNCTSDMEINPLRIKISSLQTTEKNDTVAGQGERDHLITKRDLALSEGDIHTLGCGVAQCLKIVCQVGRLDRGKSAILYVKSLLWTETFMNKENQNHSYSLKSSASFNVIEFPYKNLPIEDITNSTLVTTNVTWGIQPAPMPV
T2 sequence (P18564 22-707 limits assumed): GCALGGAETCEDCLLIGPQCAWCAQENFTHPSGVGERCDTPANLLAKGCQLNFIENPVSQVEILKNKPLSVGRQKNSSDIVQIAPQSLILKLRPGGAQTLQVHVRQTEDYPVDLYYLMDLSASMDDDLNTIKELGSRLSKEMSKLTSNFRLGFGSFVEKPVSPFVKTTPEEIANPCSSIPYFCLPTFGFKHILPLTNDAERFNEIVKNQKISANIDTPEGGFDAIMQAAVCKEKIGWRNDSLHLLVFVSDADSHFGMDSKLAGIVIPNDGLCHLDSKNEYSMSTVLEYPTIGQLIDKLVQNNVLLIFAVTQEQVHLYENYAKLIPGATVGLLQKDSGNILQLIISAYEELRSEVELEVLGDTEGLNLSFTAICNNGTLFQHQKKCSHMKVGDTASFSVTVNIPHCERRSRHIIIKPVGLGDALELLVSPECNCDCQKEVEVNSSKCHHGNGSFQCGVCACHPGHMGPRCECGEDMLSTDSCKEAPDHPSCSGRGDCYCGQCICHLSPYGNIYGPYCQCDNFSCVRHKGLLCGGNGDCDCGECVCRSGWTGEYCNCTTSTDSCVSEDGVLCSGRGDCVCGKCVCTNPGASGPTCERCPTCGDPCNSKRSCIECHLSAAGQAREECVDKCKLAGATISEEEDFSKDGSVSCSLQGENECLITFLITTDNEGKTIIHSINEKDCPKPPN

Row | Compound | IC50 (αvβ8-integrin [1]) [nM] | IC50 (αvβ6-integrin [2]) [nM] | IC50 (α5β1-integrin [3]) [nM] | IC50 (αvβ3-integrin [4]) [nM] | IC50 (αvβ8-integrin [5]) [nM] | IC50 (α5β1-integrin [6]) [nM] | IC50 (αvβ6-integrin [7]; ELISA, read-out: IC50 (95% confidence interval) αvβ6) [nM] | αvβ6-selectivity over α5β1 (αvβ6-integrin [7]; IC50-based) | αvβ6-selectivity over αvβ3 (αvβ6-integrin [7]; IC50-based) | αvβ6-selectivity over αvβ8 (αvβ6-integrin [7]; IC50-based) | IC50 (αvβ3-integrin [8]) [nM]
1 | YY: cyclo[YRGDLAYp(NMe)K] bearing 4-pentynoic amide on the Lys side chain; alkyne-functionalized peptide monomer (cyclo(YRGDLAY[dP][NMeK](Pent4ynoyl)); SMILES C#CCCC(=O)NCCCC[C@H]1C(=O)N[C@@H](Cc2ccc(O)cc2)C(=O)N[C@@H](CCCNC(=N)N)C(=O)NCC(=O)N[C@@H](CC(=O)O)C(=O)N[C@@H](CC(C)C)C(=O)N[C@@H](C)C(=O)N[C@@H](Cc2ccc(O)cc2)C(=O)N2CCC[C@@H]2C(=O)N1C) | 26 | 0.84 | 150 | 219 |  |  |  |  |  |  | 
2 | C#CCCC(=O)NCCCC[C@H]1C(=O)N[C@@H](Cc2ccc(O)cc2)C(=O)N[C@@H](CCCNC(=N)N)C(=O)NCC(=O)N[C@@H](CC(=O)O)C(=O)N[C@@H](CC(C)C)C(=O)N[C@@H](C)C(=O)N[C@@H](Cc2ccccc2)C(=O)N2CCC[C@@H]2C(=O)N1C [YF] (cyclo(YRGDLAF[dP][NMeK](Pent4ynoyl))) |  |  |  |  | 23 | 114 | 3.3 | 35 | 190 | 6.9 | 630
3 | FF: cyclo[FRGDLAFp(NMe)K] bearing 4-pentynoic amide on the Lys side chain; alkyne-functionalized peptide monomer | 32 | 0.17 | 226 | 424 |  |  |  |  |  |  | 
